Experiment: yeast display, Sf9 membrane polyspecificity reagent, FACS + sequencing; frameworks hold sequencing errors
Method in brief: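 Synthetic nanobody libraries on Saccharomyces cerevisiae BJ5465 were galactose-induced for 36–48 hours, stained 1 hour at 4 °C with 10% biotinylated, detergent-solubilized Sf9 membrane reagent and enriched on streptavidin microbeads. FACS then separated cells into low and high (top ~1%) gates by anti-HA (expression) and streptavidin (reagent binding) fluorescence. Genes were colony-PCR amplified, MiSeq 2 × 250 sequenced and CDR-length filtered. A clone's polyreactivity label is that of its gate of origin.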

Row | Sequence | polyreactivity (PSR sort gate)
1 | QVQFVESGGGLVQAGGSLRLSCAASGSTFQGYAMGWYRQAPGKERELVAAISRSGGRTYYADSVKGRFTISRDNAKNTVYLQMNSLKPEDTAVYYCAAEGHELTEGDSWGQGTQVTVSS | low polyreactivity
2 | QVQFVESGGGLVQAGGSLRLSCAASGSTFQGYAMGWYRQAPGKERELVAAISRSGGRTYYADSVKGRFTISRDNAKNTVYLQMNSLKPEDTAVYYCAKYYWAPTGAHGGYGYWGQGTQVTVSS | low polyreactivity
3 | QVQFVESGGGLVQSGGSLRLSCAASGSIFRAYAMGWYRPAPGKEREFVAAISRRGGSTSYADSVKGRFTISRDYAKNTVYLQMNSLKPEDTAVYYCAATYQILTTSAHDSWGQGTQVTVSS | high polyreactivity
4 | QVQHEESGGGLVQAGGSLRLSCAASGYTFSFYAMGWSRQAPGKERELVAAISSSDGTTYYADSVKGRFTISRDNAKNTVYLQMNSLKPQDTAVYYCNTRYVRQVVGTYTLKTRYYWGQGTQVTVSS | high polyreactivity
5 | QVQHGESGGGLVQAGGSLRLSCAASGRIFYYYAMGWYRQAPGKERELVAAITWNAGITYYADSVKGRFTISRDNAKNTVYLQMNSLKPEDSAVYYCAASRWARGRDYWGQGTQVTVSS | high polyreactivity
6 | QVQHLESRGGLVQAGGSLRLSCAASGSIFASNAMGWYRPAPGKEREFVAAITWRTDRTYYADSVKGRYTISRDIAKNTVYLQMNSLKPEDTAVYYCNAGRRVYYYSAYYGGGYWGQGTQVTVSS | high polyreactivity
7 | QVQHVDSGGCLVQAGGTLRLSCAASGFTLWAYAMGWYRQAPGKEREFVAVISRSDGSTYYADSVKGRFTISRENAKNTVYLQMNSLKPEDSAVYYCAAKHRGAKYDYWGQGTQVTVSS | low polyreactivity
8 | QVQHVDSGGGLFQAAGSLRLSCAASGGTFSFYTMGWSRQGPGKERELVAAIDSTGRTNYADSVKGRFTISRDKAKNTVYLQMNSLKPEDSAVYYCSAGPPRADYDYWGQGTQVTVSS | low polyreactivity
9 | QVQHVDSGGGLVQAGGSLRLSCAASGFIFAYNIMGWYRQAPGKERELVADISGTGSTNYADSVKGRFTISRDNAKNTVYLQMNSLKPEDTAVYYCATSGDRLVWGQGTLVTVSS | low polyreactivity
10 | QVQHVDSGGRLVQAGGRLRLSCAASGRIITYYARGWNRQAPGKERELVAAISGRGGGTYYADSVKGRFTISRDNAKNTVYLQMNSLKPADTAVYYCNAYYSRLRYDYWGQGTQVTVSS | high polyreactivity
11 | QVQHVESAGGLVQAAGSLRLSCAASGLSYSRYAMGWYRQAPGKERELVAAITWSGSSTYYADSVKGRFTISRDNAKNTVYLQMNSLKPEDTAVYYCAGRYGYSRGPYYRSDYWGQGTQVTVSS | high polyreactivity
12 | QVQHVESAGGLVQEAGSLRLRCAASGSTFYSYAMGWSRQAPGKERELVAAISRSGGRTNYADSVKGRFTISRDIAKNTVYLQMNSLKPEDTAVYYCNARHYLSAYDYWGQGTQVTVSS | high polyreactivity
13 | QVQHVESCGGLVQAGGSLRLSCAASGRIINSNDMGWYRQAPGKERELVAAISKRGGSTFYADSVKGRFTISRDNAKNTVYLQRNSLKPEDTAVYYCAADKWTYYYAVDSWGQGTQVTVSS | high polyreactivity
14 | QVQHVESGAGLVQAGGSLRLSCAASGRTFYYYAMGWYRQAPGKERELVAAISTNGGSTSYADSVKGRFTISRDNAKNTVYLQMNSLKPEDSAVYYSAAYYRTPTDVEYDYWGQGTQVTVSS | high polyreactivity
15 | QVQHVESGGALVQAGGSLRLSCAASGSTYYIYAMGWYRHGPGKERELVARISGSGGSTYYADSVKGRFTISRDNAKNTVYLQMNSLKPEDTAVYYCAADDIYKYYQYYAFQYFRYDYWGQGTQVTVSS | low polyreactivity
16 | QVQHVESGGCLFQAGGILRLSCAASGIIFTYYDMGWYRQAPGKERELVAGIDYSGTSTYYADSVKGRFTISRDNAKNTVYLQMNSLKPEDTAVYYCAAVPVWVVYFSGEYYYWGQGTQVTVSS | high polyreactivity

Row | Sequence | polyreactivity (PSR sort gate)
17 | QVQHVESGGCLVQARGSLRLSCASSGRTFDIYARGWYRHPPGKESELVAVISASGGSTYYADSVKGRFTISRDNAKNTVYLQMNSLKPEDTAVYYCAARYWFRFQYDYWGQGTQVTVSS | high polyreactivity
18 | QVQHVESGGGIVQAGGSLRLSCAASGSIFVRYAMGWYRQAPGKERESVAAISASGSSTYYADSVKGRFTISRDNAKNTVYLQMNSLKPEDTADYYCNAVRARRFDYWGQGTQVTVSS | high polyreactivity
19 | QVQHVESGGGIVQAGGSLRLSCAASGSIFYQYAMGWYRQSPGKERELVAASSRSGGSTYYADSVKGRFTISRHNAKNTVYLQMNSLKPEDTAVYYCAARAVRAAYDYWGQGTQVTVSS | low polyreactivity
20 | QVQHVESGGGKVQAGGSLRLSCASSGFTIMSYAMGWYRQAPGKERELVAAISRSGGSTYYADSVKGRFTISRDKAKNTVYLQMISLKPEDTAVYYCAARSAFRKQFSRNNYWGQGSQVTVSS | high polyreactivity
21 | QVQHVESGGGLDQAARSLRLICAASGSIFTDNGMGWYRQAPGKERELVAAISWRGGTYYADSVKGRFTISRDNAKNSVYLQMNSLKPEDTAVYYCNADPEAEGNFEYYYWGQGTQVTVSS | low polyreactivity
22 | QVQHVESGGGLDQAGGSLRLSCAASGITFEGYAMGWYRQAPGKERELVAAIRSSGTSTYYADSVKGRFTISRDNAKNTFYLQMISLKPEETAVYYCNRARSSYSYDYWGQGTQVTVSS | low polyreactivity
23 | QVQHVESGGGLDQAGGSLRLSCAASGRTFSYYTMGWYRQAPGKERELVARISNRGTNTYYADSVKGRFTISRDNSKNTVYLQMNSLKPEDTAVYYCAKYYYTSIVGYDSWGQGTQVTVSS | low polyreactivity
24 | QVQHVESGGGLDQAGGSLRLSCAASGSIFNGYAMGWYRQAPGKERELVADIRSGGSTYYADSVKGRFTISRDNAKNTVYLQMNSLKPEDTAVYYCAGDTITDGYDYWGQGTQVTVSS | low polyreactivity
25 | QVQHVESGGGLDQAGGSLRLSCAASGSIYVGNEMGWSRQATGKETELVDTISWSGGSTYYADSVKGRFTISRDNAKNTVYLQMNSLKPEDTAVYYCAKTPYRRYRYGGYNYRTYDYWGQGTQVTVSS | low polyreactivity
26 | QVQHVESGGGLFQAGGSLRLSCAASGQNFRPYALGWDRQAPGKERELVAAIRWSDDSTYFAVSVKGRFTILRDNAKNTVYLQLNSLKPEDTAVYYCNARWWYPTYYYWGQGSQVTVSS | high polyreactivity
27 | QVQHVESGGGLLQAGGSLRLSCAASGFTFNANAMGWYRQAPGKERELVAVITRSGGRTYYADSVKGRFTISRDNAKNTVYLQMNSLKPEDTAVYYCNAKGWTRPPCYDYWGQGTQVTVSS | high polyreactivity
28 | QVQHVESGGGLVQAGGILRLSCAASGFTFPAYTMGWYRQAPGKERELVAAITSSGGNTYYADSVKGRFTISRDNAKNTLCLQMNSLKPEDTAVYYCATVSVRWPSNDHVRYDYWGQGTQVTVSS | low polyreactivity
29 | QVQHVESGGGLVQAGGNLRLSCPASGFTIYYYAMVCDRQAPGKERELVAGISKSGGITYYADSVKGRFTISRDNAKNTVYLQMNSLKPEDTAVYYCAAAEWYQFFIYRYTYEYWGQGSQVTVSS | low polyreactivity
30 | QVQHVESGGGLVQAGGSLLLSCAASGSIFYLYAMGWYRQEPGKERELVATMSSSGGSTYYADSVKGRFTISRDNAKNTVYLQMNSLKPEDTAVYYCNADYIYYGTTYEYWGQGTQVTVSS | low polyreactivity
31 | QVQHVESGGGLVQAGGSLRLGCPASGIIFIAYAMGWYRQAPGKERELVADISIGGSTNYADSVKGRFTISRDNAKYTVYLQMNSLKPEDTAVYYCAKRPKNKPVLGDYDHWGQGTQVTVSS | low polyreactivity
32 | QVQHVESGGGLVQAGGSLRLICAASGFTFHLYAMGWYRQAPGKERELVASITYSGGSTYYADSVKGRFTISRDKAKNTVYLHMNSLKAEDTAFYYCNRYSSSYSYDYWGQATQVTVSS | high polyreactivity

— the nanobody polyreactivity screen of Harvey et al. (2022)
